Here are results for eight molecules from patent US20230096452A1 (SHANGHAI ESCUGEN BIOTECHNOLOGY, published 2023).

The target in experiment [1] is T1, human claudin 18.2 (hCLDN18.2) (human).
T1 construct: also called CLDN18 splice variant 2; HEK293-hCLDN18.2
As to the kind of experiment: flow cytometry on HEK293-hCLDN18.2 cells; 5 ug/mL; antibody heat treated at 70 C for 5 min.
Method: (§1) The well-grown HEK293-hCLDN18.2 stably transfected cell line and the hCLDN18.2 low-expressing KATOIII human gastric cancer cell line sorted and enriched by flow cytometry were digested with trypsin, and resuspended to adjust the cell concentration to 1.5×10⁶˜2×10⁶/mL, added to a 96-well U-plate at 100 μL/well (150,000 to 200,000 cells/well). Washing once with PBS buffer containing 1% fetal bovine serum (FBS). The antibody solution (100 μL/well) with the test concentration prepared in PBS (+1% FBS) was added, mixed with the cells, and incubated at 4° C. for 1 hour. Cells were centrifuged at 200 g and washed once with PBS (+1% FBS). […] Cells were centrifuged at 200 g and washed twice with PBS (+1% FBS), then resuspended in 100 μL of PBS (+1% FBS) for flow cytometric analysis. […] In the study of the effect of heat treatment on the binding properties of antibodies, the antibody to be tested was heat-treated at 70° C. for 5 minutes on a PCR machine, and then incubated with cells for binding.

The target in experiment [2] is T1, human claudin 18.2 (hCLDN18.2). As to the kind of experiment: flow cytometry on HEK293-hCLDN18.2 cells; 5 ug/mL; not heat treated.
Method: as §1
Experiment [3] shares this target. In words: flow cytometry on HEK293-hCLDN18.2 cells; 1 ug/mL; not heat treated.
Method: as §1
Experiment [4] has the same target. As to the kind of experiment: flow cytometry on HEK293-hCLDN18.2 cells; 1 ug/mL; antibody heat treated at 70 C for 5 min.
Method: as §1
Experiment [5] has the same target. As to the kind of experiment: flow cytometry on HEK293-hCLDN18.2 cells; 0.2 ug/mL; not heat treated. On the technique in general: In flow cytometry, cells or beads pass a laser one at a time.
Method: as §1
Experiment [6] has the same target. In words: flow cytometry on HEK293-hCLDN18.2 cells; 0.2 ug/mL; antibody heat treated at 70 C for 5 min.
Method: as §1
For experiment [7] the target is unchanged. In words: flow cytometry (direct FACS binding, equilibrium at 4 C) on HEK293-hCLDN18.2 cells.
Method: After resuscitation of HEK293 cells (HEK293-hCLDN18.2) stably expressing CLDN18.2, they were cultured and passaged until a certain number of cells were reached. The cells were distributed to 1 mL centrifuge tubes at a density of 5×10⁴/mL, and centrifuged for use. […] To eliminate ligand depletion effects (Ligand Depletion), antibody concentration series were prepared using PBS binding buffer diluted to the corresponding ligand depletion volume. HEK293-hCLDN18.2 cells were mixed and incubated with serial concentrations of antibodies formulated to the ligand elimination volume, and incubated at 4° C. until equilibrium.
For experiment [8] the target is unchanged. As to the kind of experiment: cell-based or functional assay.
For experiment [9], the target named is T2, mouse claudin 18.2 (mCLDN18.2) (mouse, UniProt P56857 10-264).
T2 construct: the stomach-type (A2) isoform is meant; also called m hCLDN18.2; HEK293-mCLDN18.2
T2 chain: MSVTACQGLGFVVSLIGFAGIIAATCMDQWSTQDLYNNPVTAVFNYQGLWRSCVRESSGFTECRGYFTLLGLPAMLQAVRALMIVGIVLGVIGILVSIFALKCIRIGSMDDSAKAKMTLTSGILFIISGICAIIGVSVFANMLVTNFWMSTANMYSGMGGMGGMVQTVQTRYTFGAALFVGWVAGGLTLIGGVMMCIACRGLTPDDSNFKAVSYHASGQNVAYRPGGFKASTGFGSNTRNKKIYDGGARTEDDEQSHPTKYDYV
As to the kind of experiment: flow cytometry, HEK293-mCLDN18.2 cells, fixed and non-fixed.

In experiment [10] the target is T3, mouse claudin 18.1 (mCLDN18.1) (mouse, UniProt P56857 1-264).
T3 construct: the lung-type (A1) isoform is meant; also called HEK293-mCLDN18.1
As to the kind of experiment: flow cytometry, HEK293-mCLDN18.1 cells, paraformaldehyde-fixed and non-fixed.

Experiment [11] concerns the target T1, human claudin 18.2 (hCLDN18.2). As to the kind of experiment: flow cytometry on hCLDN18.2 low-expressing KATO III cells.
Method: as §1

Where a chain is given by its changes, count along the chain named.

B1: h5M9V10 humanized antibody (h5M9 VHv4 / h5M9 VLv1) (antibody, human IgG1, kappa, V domains shown)
VH: QVQLKESGPGLVAPSETLSITCTVSGFSLTTYGVQWVRQPPGKGLEWLGAIWAGGNTNYNSALMSRLTISKDNSKSQVSLKMSSLTAADTAIYYCAKGGYGNAMDYWGQGTLVTVSS
VL: DIVMTQSPSSLAVSLGERATMNCKSSQSLLNSGNQKNYLTWYQQKPGQPPKLLIYWASTRESGVPDRFSGSGSGTDFTLTISSVQAEDLAVYYCQNDYFFPFTFGQGTKLEIKR
notes: Human IgG1 (G1m17) / kappa
For B1, the “FACS binding signal (read-out unnamed)” value came out at 607 in experiment [1]; 599 in [2]; 316 in experiment [3]; 292 in [4]; 73.7 in experiment [5]; 70.8 in experiment [6].

B2: h5M9V12 humanized antibody (h5M9 VHv4 / h5M9 VLv3) (antibody, human IgG1, kappa, V domains shown)
VH: B1 VH
VL: B1 VL with A19V, S69T, Q106S
notes: Human IgG1 (G1m17) / kappa
Regarding B2, the “FACS binding signal (read-out unnamed)” value in [1] is 673; in experiment [2], 589; in [3] it was 419; in experiment [4], 411; in experiment [5], 103; in [6], 90.

B3: h5M9V7 humanized antibody (h5M9 VHv3 / h5M9 VLv1) (antibody, human IgG1, kappa, V domains shown)
VH: B1 VH with L85V
VL: B1 VL
notes: Human IgG1 (G1m17) / kappa
As to B3, the “FACS binding signal (read-out unnamed)” value in [1] is 732; in [2], 631; in experiment [3], 296; in experiment [4] it was 294; in [5] it was 84.3; in experiment [6] it was 73.3.

B4: 5-M9 human-mouse chimeric monoclonal antibody (antibody, human IgG1, V domains shown)
VH: QVQLKESGPVLVAPSQSLSITCTVSGFSLTTYGVQWVRQPPGKGLEWLGAIWAGGNTNYNSALMSRLSISKDNSKSQVFLKMNSLQTDDTAIYYCAKGGYGNAMDYWGQGTSVTVAS
VL: DIVMTQSPSSLTVTAGERVTMSCKSSQSLLNSGNQKNYLTWYQQKSGQPPKLLIYWASTRESGVPDRFTGSGSGTDFTLTISSVQAEDLAVYYCQNDYFFPFTFGSGTKLEIK
notes: Mouse V regions fused to human IgG1 (G1m17) heavy chain constant region and human kappa light chain constant region; also called 5-M9-A; Chi 5-M9
For orientation: Kd means the concentration at which binding is half-saturated. A high value points to a looser complex. The term EC50 denotes the concentration that produces a half-maximal response. A low value points to greater potency. For B4, the “FACS binding signal (read-out unnamed)” value in [1] amounted to 746; in experiment [2], 638; in experiment [3], 341; in experiment [4] it was 289; in [5], 83; in [6], 75.6. The Kd in [7] stood at 0.048 nM. Besides, the “EC50” value in experiment [8] turned out to be 0.000287 ng/mL. Moreover, the Maximum induction fold in experiment [8] is 40 fold.

B5: h5M9v9 humanized antibody (h5M9 VHv3 / h5M9 VLv3) (antibody, V domains shown)
VH: B1 VH with L85V
VL: B4 VL with T12A, T14S, A15L, S22N, S46P
notes: Human IgG1 (G1m17) heavy and human kappa light constant regions
Turning to B5, the “FACS binding signal (read-out unnamed)” value in experiment [1] is 636; in [2], 589; in [3], 291; in [4], 242; in [5], 66.8; in experiment [6], 59.2.

B6: 9-D1 human-mouse chimeric monoclonal antibody (antibody, human IgG1, V domains shown)
VH: EIQLQQSGAELVKPGASVKISCKASGYSFTDYHMNWVRQSHGKSLEWIGNIDPYYGSPTYNHKFKGKATLTVDKSSSTAYMQLISLTSEDSAVYYCANYGRGNSFPYWGQGTLVTVSA
VL: B4 VL with R18K, K36R, S46P, I54L, F99S
notes: Mouse V regions fused to human IgG1 (G1m17) heavy chain constant region and human kappa light chain constant region; also called 9-D1-A
Take B6: in [7], the Kd was 0.049 nM. In [8], a half-maximal effect (EC50) was put at 0.0074 ng/mL and the Maximum induction fold worked out at 35 fold.

B7: 163E12 human-mouse chimeric positive control antibody (antibody, V domains shown)
VH: QIQLVQSGPELKKPGETVKISCKASGYTFTNYGMNWVKQAPGKGLKWMGWINTNTGEPTYAEEFKGRFAFSLETSASTAYLQINNLKNEDTATYFCARLGFGNAMDYWGQGTSVTVSS
VL: DIVMTQSPSSLTVTAGEKVTMSCKSSQSLLNSGNQKNYLTWYQQKPGQPPKLLIYWASTRESGVPDRFTGSGSGTDFTLTISSVQAEDLAVYYCQNDYSYPLTFGAGTKLELKR
notes: Self-made, expressed in CHOS cells, Protein A purified; also called Benchmarker; Benchmark
Consider B7, for which the binding result in [9] is recorded as “binds”. Moreover, binding in experiment [7] was put at a Kd of 0.137 nM. Moreover, in [8], a half-maximal response (EC50) required 0.0195 ng/mL and the Maximum induction fold was determined as 36.3 fold. In addition, the binding result in experiment [10] is “no binding”.

B8: 175D10 human-mouse chimeric positive control antibody (antibody, V domains shown)
VH: QVQLQQPGAELVRPGASVKLSCKASGYTFTSYWINWVKQRPGQGLEWIGNIYPSDSYTNYNQKFKDKATLTVDKSSSTAYMQLSSPTSEDSAVYYCTRSWRGNSFDYWGQGTTLTVSS
VL: B7 VL with L102F, A106S, L112I
notes: Self-made, expressed in CHOS cells, Protein A purified; also called Benchmark
B8: the “FACS binding signal (read-out unnamed)” value turned out to be 600 in [1]; 567 in [2]; 318 in [3]; 296 in experiment [4]; 81.3 in experiment [5]. In [7], binding was characterised by a dissociation constant (Kd) of 0.189 nM. A half-maximal effect in experiment [11] (EC50) was put at 800 ng/mL.
